The chains are these.
B1: LINE1-full (parent)
chain: UACGUAGGUGGUUUUCCCCUGAUAGUGCUAAGGGGGCCUGGAAGUUUGGACUGGGCAGAGCUCAACACAGCGUGGCAAAGUGGCUGUGGCUAGACUGCCUCUCUGGAUUCCUCGUCACUCAGCAGGGCAUCUCUGAGAGAAAUGCC

Consider 20 variants from the RNAGym collection of RNA variant scans (doi:10.7554/elife.90254).

The data set covers variants of B1. In words: self-cleavage, relative activity (ratio to wild type); higher = more cleavage; in vitro, sequencing; the parent is a self-cleaving ribozyme.
Take UACGUUGGUGGUUUUCCCCUGAUAGUGCUAAGGGGGCCUGGAAGUUUGGACUGGGCAGAGCUCAACACAGCGUGGCAAAGUGGCUGUGGCUAGACUGCCUCUCUGGAUUCCUCGUCACUCAGCAGGGCUUCUCUGAGAGAAAUGCC [A6U A129U]: the self-cleavage came out at 1.52.
With UACGUUGGUGGUUUUCCCCUGAUAGUGCUAAGGGGGCCUGGAAGUUUGGACUGGGCAGAGCUCAACACAGCGUGGCAAAGUGGCUGUGGCUAGACUGCCUCUCUGGGUUCCUCGUCACUCAGCAGGGCAUCUCUGAGAGAAAUGCC [A6U A107G], the self-cleavage turned out to be 1.05.
As to UACGUUGGUGGUUUUCCCCUGAUAGUGCUAAGGGGGCCUGGAAGUUUGGACUGGGCAGAGCUCAACACAGCGUGGCAAAGUGGCUGUGGCUAGAAUGCCUCUCUGGAUUCCUCGUCACUCAGCAGGGCAUCUCUGAGAGAAAUGCC [A6U C95A], the self-cleavage came out at 0.07.
Take UACGUUGGUGGUUUUCCCCUGAUAGUGCUAAGGGGGCCUGGAAGUUUGGACUGGGCUGAGCUCAACACAGCGUGGCAAAGUGGCUGUGGCUAGACUGCCUCUCUGGAUUCCUCGUCACUCAGCAGGGCAUCUCUGAGAGAAAUGCC [A6U A57U]: the self-cleavage came to 0.08.
For the variant UACGUUGGUGGUUUUCCCCUGAUAGUGCUAAGGGGGCCUGGAAGUUUGGACUGGGCGGAGCUCAACACAGCGUGGCAAAGUGGCUGUGGCUAGACUGCCUCUCUGGAUUCCUCGUCACUCAGCAGGGCAUCUCUGAGAGAAAUGCC [A6U A57G], the self-cleavage was found to be 0.
In the case of UACGUUGGUGGUUUUCCCCUGAUAGUGCUAAGGGGGCCUGGAAGUUUGGACUGGGUAGAGCUCAACACAGCGUGGCAAAGUGGCUGUGGCUAGACUGCCUCUCUGGAUUCCUCGUCACUCAGCAGGGCAUCUCUGAGAGAAAUGCC [A6U C56U], the self-cleavage stood at 0.21.
Regarding UACGUUGGUGGUUUUCCCCUGAUAGUGCUAAGGGGGCCUGGAAGUUUGGACUGGGCAGAGCUCAACACAGCGUGGCAAAGUGGCUGUGGCUAGACUGCCUCUCUGGAUUCCUCGUCACUCAGCAGGGCAUCUCUGAGAGAAAUGCC [A6U], the self-cleavage is 0.99.
The same measure for UACGUGGGUGGUUUUCCCCUGAUAGUGCUAAGGGGGCCUGGAAGUUUGGACUGGGCAGAGCUCAACACAGCGUGGCAAAGUGGCUGUGGCUAGACUGCCUCUCUGGAUUCCUCGUCACUCAGCAGGGCAUCUCUGAGAGAAACGCC [A6G U143C]: 0.57.
The same measure for UACGUUGGUGGUUUUCCCCUGAUAGUGCUAAGGGGGCCUGGAAGUUUGGACUGGGCAGAGCUCAACACAGCGUGGCAAAGUGGCUGUGGCUAGACUGCCUCUCUGGAUUCCUCGUCACUCAGCGGGGCAUCUCUGAGAGAAAUGCC [A6U A124G]: 0.6; for UACGUUGGUGGUUUUCCCCUGAUAGUGCUAAGGGGGCCUGGAAGUUUGGACUGGGCAGAGCUCAUCACAGCGUGGCAAAGUGGCUGUGGCUAGACUGCCUCUCUGGAUUCCUCGUCACUCAGCAGGGCAUCUCUGAGAGAAAUGCC [A6U A65U]: 0.33; for UACGUUGGUGGUUUUCCCCUGAUAGUGCUAAGGGGGCCUGGAAGUUUGGACUGGGCAGAGCUCAGCACAGCGUGGCAAAGUGGCUGUGGCUAGACUGCCUCUCUGGAUUCCUCGUCACUCAGCAGGGCAUCUCUGAGAGAAAUGCC [A6U A65G]: 0.26.
Take UACGUUGGUGGUUUUCCCCUGGUAGUGCUAAGGGGGCCUGGAAGUUUGGACUGGGCAGAGCUCAACACAGCGUGGCAAAGUGGCUGUGGCUAGACUGCCUCUCUGGAUUCCUCGUCACUCAGCAGGGCAUCUCUGAGAGAAAUGCC [A6U A22G]: the self-cleavage was determined as 0.87.
UACGUUGGUGGUUUUCCCCUGAUAGUGCUAAGGGGGCCUGGAAGUUUGGACUGGGCAGAGCUCAACACAGCGUGGCAAAGUGGCUGUGGCUAGACUGCCUCUCUGGAUUCCUCGUCACUCAGCAGGGCAUCUCUGAGAGAGAUGCC [A6U A141G]: the self-cleavage was 0.94.
Regarding UACGUUGGUGGUUUUCCCCUGAUAGUGCUAAGGGGGCCUGGAAGUUUGGACUGGGCAGAGCUCAACACAGCGUGGCAGAGUGGCUGUGGCUAGACUGCCUCUCUGGAUUCCUCGUCACUCAGCAGGGCAUCUCUGAGAGAAAUGCC [A6U A78G], the self-cleavage stood at 0.77.
As for UACGUUGGUGGUUUUCCCCUGAUAGUGCUAAGGGGGCCUGGAAGUUUGGACUGGGCAGAGCUCAACACAGCGUGGCAAGGUGGCUGUGGCUAGACUGCCUCUCUGGAUUCCUCGUCACUCAGCAGGGCAUCUCUGAGAGAAAUGCC [A6U A79G], the self-cleavage turned out to be 0.8.
Then UACGUUGGUGGUUUUCCCCUGAUAGUGCUAAGGGGGCCUGGGAGUUUGGACUGGGCAGAGCUCAACACAGCGUGGCAAAGUGGCUGUGGCUAGACUGCCUCUCUGGAUUCCUCGUCACUCAGCAGGGCAUCUCUGAGAGAAAUGCC [A6U A42G], with 0.58; and UACGUUGGUGGUUUUCCCCUGAUAGUGCUAAGGGGGCCUGGAAGUUUGGACUGGGCAGAGCUCAACACAGCGUGGCAAAGUGGCUGUGGCUAGACUGCCUCUCUGGAUUCCUCGUCACUCAGCAGGGCAUCUCUGAGGGAAAUGCC [A6U A138G], with 1.15.
Turning to UACGUUGGUGGUUUUCCCCUGAUAGUGCUAAGGGGGCCUGGAAGUUUGGACUGGGCAGAGCUCAACACAGCGUGGCAAAGUGGCUGUGGCUAGACUGCCUCUCUGGAUUCCUCGUCACUCAGCAGGGCAUCUCUGAGAGGAAUGCC [A6U A140G], the self-cleavage is 0.77.
The same measure for UACGUUGGUGGUUUUCCCCUGAUAGUGCUAAGGGGGCCUGGAAGUUUGGGCUGGGCAGAGCUCAACACAGCGUGGCAAAGUGGCUGUGGCUAGACUGCCUCUCUGGAUUCCUCGUCACUCAGCAGGGCAUCUCUGAGAGAAAUGCC [A6U A50G]: 0.72.
In the case of UACGUUGGUGGUUUUCCCCUGAUAGUGCUAAGGGGGCCUGGAAGUUUGGACUGGGCAGAGCUGAACACAGCGUGGCAAAGUGGCUGUGGCUAGACUGCCUCUCUGGAUUCCUCGUCACUCAGCAGGGCAUCUCUGAGAGAAAUGCC [A6U C63G], the self-cleavage turned out to be 0.19.
